Data taken from paper PMC4243253.

Substrate: N[C@@H](CC(=O)c1ccccc1NC=O)C(=O)O
Assay: purified protein
Format: biochemical, Burkholderia cenocepacia
Settings: 0.1 M sodium phosphate, pH 7.4, 20 μM ZnCl2, 25°C

B1: BcKynB (Burkholderia cenocepacia J2315) (protein)
chain: MDTLWDISPPVSPATPVWPGDTPVAVERVWRMEAGSPVNVARLTLSPHTGAHCDAPLHYDADGAPIGAVPLDTYLGPCRVIHCIGAAPVVRPADVEAALDGVPPRVLLRTYARAAVEQWDSNFCAVAPDTVDLLAAHGVKLIGIDTPSLDPQESKTMDAHRRVRAHRMAILEGIVLDDVPPGDYELIALPLKFATLDASPVRAVLRALPAQAS
Km: 570 ± 20 µM | Vmax: 0.0582 µmol/min | kcat: 43.9 s⁻¹ | kcat/Km: 77100 M⁻¹ s⁻¹
